From patent US20200139362A1, “Proto-Antigen-Presenting Synthetic Surfaces, Activated T Cells, and Uses Thereof” (Berkeley Lights, Inc., priority 2018, published 2020)
Square brackets hold non-standard residues; d marks the D form. Ends that are not written are not given here.

Assays:
HLA-A*02:01 [1] = biological target: T1, HLA-A*02:01 (Homo sapiens, UniProt P04439, D140Y/D185E/D98H/E176V/E277Q/G131W/G231S/I119V/I121R/I166T/I218V/L300P/L318F/N151K/N90K/P208A/P217A/Q86G/Q94H/R138H/R169H/T345S); experiment: Peptide binding and stability of pMHC complexes under culture conditions (W6/32 antibody, flow cytometry); conditions: pMHC on Streptavidin DynaBeads in T Cell Culture Media at 37° C.; exponential decay fit of APC MFI
Procedure: To assess the stability of the pMHC Class I-peptide antigen complexes under the conditions that are used to culture T Cells, pMHC Class I complexes were first bound to beads. Biotinylated HLA-A*02:01 complexes loaded with either SLYSYFQKV (SEQ ID NO: 5) or SLLPIMwQLY (SEQ ID NO: 6) peptides were diluted to 0.83 micrograms/mL in Assay Buffer (PBS with 2 mM EDTA and 0.1% Bovine Serum Albumin). To 0.6 mL of the pMHC solutions in microcentrifuge tubes, 10^7 Streptavidin-coated DynaBeads (M-280, ThermoFisher) were added. The beads were mixed in the pMHC solution for 4 minutes at 2,000 rpm on a ThermoMixer (Eppendorf). The pMHC-beads were then captured on a magnetic rack, and the solution containing unbound pMHC removed by aspiration. 1 mL of Assay Buffer was added to the tubes, and then aspirated. The beads were then resuspended in 0.1 mL of Assay Buffer. The beads were then stored at 4° C. until use. […]
Antibody binding to the beads was then detected on a FACSCelesta with High-Throughput Sampler (BD Biosciences). […] Approximately 25,000 bead events were recorded for each sample. The Median Fluorescence Intensity (MFI) in the APC channel for the pHLA-beads in each sample was then recorded. […] The half-lives for the pHLA complexes were then calculated from the fitted decay constant.

HLA-A*02:01 [2] = biological target: T1, HLA-A*02:01; experiment: Peptide switching (exchange) on peptide-HLA-A*02:01 complex, anti-DNP antibody flow cytometry; assay type: binding; conditions: 20 micromolar peptide, 1 micromolar HLA-A*02:01 with DNP-labelled initial peptide LMYAKRAFV, 1 mM Glycl-Methionine, room temperature 4 hours; relative to control peptide […] set as 100%
Procedure: To test binding of Immunogenic and Non-Immunogenic peptides to an MHC Class I complex, a peptide-HLA-A*02:01 complex with an initial peptide LMYAKRAFV (SEQ ID NO: 4) in the peptide binding groove was purchased. The initial peptide included a dinitrophenyl (DNP) moiety conjugated to the lysine at position 5. Two peptide antigens were then tested for their ability to bind to the MHC Class I complex: SLYSYFQKV (SEQ ID NO: 5) derived from SLC45A2 and SLLPIMwQLY (SEQ ID NO: 6) derived from TCL1. The peptides were resuspended in DMSO to 5 mg/mL. The peptides were then further diluted ten-fold in PBS. […]
Samples of unswitched peptide-MHC and switched peptide-MHC were then captured on Streptavidin-coated DynaBeads (ThermoFisher). […] The peptide-MHC beads were then stored at 4° C. until they were analyzed for peptide exchange.
To quantify peptide exchange, a FITC-conjugated anti-DNP antibody specific for the DNP-conjugated initial peptide was added to a sample of each captured peptide-MHC. […] The staining for pre-assembled peptide and intact pHLA complexes were detected by Flow Cytometry on a FACSCelesta with High-Throughput Sampler (BD Biosciences). […] Approximately 5,000 bead events were recorded for each sample. The Median Fluorescence Intensity (MFI) in the APC and FITC channels of each sample was then recorded. […]

Substance | half-life of peptide-HLA-A*02:01 complex (HLA-A*02:01 [1]) | percent peptide switching (HLA-A*02:01 [2])
SLLPIMwQLY (SLLPIM[dW]QLY) [TCL1-derived peptide, non-immunogenic peptide antigen derived from TCL1] | about 0.5 hours | about 90%
SLYSYFQKV (SLC45A2-derived peptide) [immunogenic peptide antigen derived from SLC45A2] | about 17 hours | about 99%
